Measurements taken from paper doi:10.1101/2025.04.16.649061.

What was measured:
Experiment in all cases: BLI
M17 fXa variant (human) = molecular target: M17 fXa variant (human)
[1] = molecular target: fXa L123 loop-swap chimera (human)
[2] = molecular target: fXa L23 loop-swap chimera (human)
[3] = molecular target: Hopsarin D (Hoplocephalus stephensii)
[4] = molecular target: fXa L2 loop-swap chimera (human)
[5] = molecular target: fXa SP chimera (entire HopD SP domain swapped into human fXa) (human | Hoplocephalus stephensii)
[6] = molecular target: fXa L123/EGF2 chimera (M45) (human | Hoplocephalus stephensii)
[7] = molecular target: wild-type human factor Xa (human)
[8] = molecular target: fXa L23 chimera with the full EGF2 domain swap (human | Hoplocephalus stephensii)
[9] = molecular target: fXa L1 loop-swap chimera (human)
[10] = molecular target: fXa L3 loop-swap chimera (human)
[11] = molecular target: fXa variant M13 (7 EGF2 and 6 SP mutations) (human)
[12] = molecular target: fXa variant M7 (7 EGF2 mutations) (human)

With “B-domainless human fV (from UniProt P12259 29-2224) (natural protein)” as the substance, how does the Kd (M17 fXa variant (human)) read?
The Kd was 17 nM.

And the Kd [1]?
The Kd was 608 nM.

And the Kd [2]?
The Kd was 1120 nM.

And the Kd [3]?
Its Kd is 18 nM.

What about the Kd [4] of the same substance?
Its Kd is 1130 nM.

What about the Kd [5] of the same substance?
Its Kd is 400 nM.

And the Kd [6]?
The Kd was 43 nM.

And the Kd [7]?
Its Kd is 1380 nM.

What about the Kd [8] of the same substance?
Its Kd is 369 nM.

What about the Kd [9] of the same substance?
Its Kd is 532 nM.

And the Kd [10]?
The Kd was 905 nM.

And the Kd [11]?
The Kd was 48 nM.

And the Kd [12]?
The Kd was 78 nM.
